In article PMC4312047:
“And” between values parts separate entries of the source, which are not always exact repeats. Identical values can stand only once.

Tests used:
[1] = target: PHB domain of B. subtilis YuaG (FloT) (Bacillus subtilis); test: SEC; Superose 6 10/300 GL, buffer A (50 mM TrisHCl pH 7.5, 150 mM NaCl, 5 mM MgCl2), RT; column calibrated with the BIO-RAD Gel Filtration Standard; fractions checked by SDS-PAGE and anti-His immunoblot
[2] = target: PHB domain of B. subtilis YuaG (FloT) (Bacillus subtilis); test: SDS-PAGE (SDS-resistant oligomers); purified PHB domain without cross-linking on denaturing SDS-PAGE; colloidal Coomassie blue staining or anti-His immunoblot
[3] = target: PHB domain of B. subtilis YuaG (FloT) (Bacillus subtilis); test: native gel or EMSA; blue native PAGE of the isolated PHB domain, according to Wittig et al.

- stoichiometry N [1]: 14.8
- stoichiometry N [2]: 4 and 8
- stoichiometry N [3]: 14
Substance: PHB domain of B. subtilis YuaG (FloT) (domain or fragment)
